Data published in patent publication US20250043003A1 (ONCOC4, published 2025).
Changes are numbered by the printed parent chain.

T1: CTLA-4 (antigen of the affinity measurement of Table 1) (UniProt P16410 36-161, limits assumed)
T1 construct: Antigen form and method of the KD measurement are not described
T1 sequence (looked up): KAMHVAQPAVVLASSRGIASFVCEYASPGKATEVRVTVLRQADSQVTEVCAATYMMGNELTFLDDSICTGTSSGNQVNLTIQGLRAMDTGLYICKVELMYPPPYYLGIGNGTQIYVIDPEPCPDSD

T2: His-hCTLA-4 (polyhistidine-tagged CTLA-4) (human, UniProt P16410 36-161)
T2 construct: Coated on ELISA plates at 0.5 ug/ml; not shown: polyhistidine tag
T2 sequence (looked up): T1 sequence (looked up)

B1: HL12 (antibody, from another filing, V domains shown)
VH: QVQLQESGPGLVKPSETLSLTCTVSGFSLTSYGLSWIRQPPGKGLEWIGYIWYDGNTNFHPSLKSRVTISKDTSKNQFSLKLSSVTAADTAVYYCAKTEGHYYGSNYGYYALDYWGQGTSVTVSS
VL: DIQMTQSPSSLSASVGDRVTITCRASENIYSNLAWYQQKQGKAPKLLLYAATNLQDGVPSRFSGSGSGTDYTLTISSLQPEDFATYFCQHLWGTPYTFGQGTKLEIK
B2: AB139 (TremeIgG1) (antibody, V domains shown)
VH: QVQLVESGGGVVQPGRSLRLSCAASGFTFSSYGMHWVRQAPGKGLEWVAVIWYDGSNKYYADSVKGRFTISRDNSKNTLYLQMNSLRAEDTAVYYCARDPRGATLYYYYYGMDVWGQGTTVTVSS
VL: DIQMTQSPSSLSASVGDRVTITCRASQSINSYLDWYQQKPGKAPKLLIYAASSLQSGVPSRFSGSGSGTDFTLTISSLQPEDFATYYCQQYYSTPFTFGPGTKVEIKR
notes: Tremelimumab variable regions; also called mAb139; WT TremeIgG1
B3: AB154 (antibody, V domains shown)
VH: B2 VH with S31H, Y32H, W36H
VL: B2 VL
notes: TremeIgG1 mutant, IgG1; also called mAb154; TremeIgG1M
B4: AB156 (antibody, IgG1, V domains shown)
VH: B2 VH with Y106H, Y107H, Y108H
VL: B2 VL
notes: TremeIgG1 mutant, IgG1; also called Mab156; TremeIgG1M
B5: AB157 (antibody, IgG1, V domains shown)
VH: B2 VH with Y107H, Y108H
VL: B2 VL
notes: TremeIgG1 mutant, IgG1; also called TremeIgG1M
B6: AB158 (antibody, IgG1, V domains shown)
VH: B2 VH with Y107H
VL: B2 VL
notes: as for B5
B7: AB159 (antibody, IgG1, V domains shown)
VH: B2 VH with Y59H, Y60H
VL: B2 VL
notes: as for B5

What was measured:
[1] = molecular target: His-hCTLA-4 (polyhistidine-tagged CTLA-4) (human) (UniProt P16410); assay: ELISA, plate-coated His-hCTLA-4, antibody 1 ug/ml, pH 5.5 against pH 7.0
[2] = molecular target: T1, CTLA-4 (antigen of the affinity …); assay: affinity, method not stated
[3] = molecular target: T2, His-hCTLA-4 (polyhistidine-tagged …); assay: ELISA, plate-coated His-hCTLA-4, antibody 1 ug/ml, pH 5.5 against pH 7.0
Method: FIG. 1A-B. pH-sensitivity of TremeIgG1 and its variants. His-hCTLA-4 (0.5 μg/ml) was coated in ELISA plates and different anti-CTLA-4 mAbs were added at 1 μg/ml in the buffer over a pH range of 4.5 to 7.0. pH indicated represents binding and washing conditions. Antibodies bound to CTLA-4 were measured using horse-radish perioxidase-labeled anti-human IgG antibodies.
In order to validate the approach, the activity of the Tremelimumab mutant antibodies was evaluated. To determine if the introduction of histidine to the CDR regions affects the pH sensitivity of the antibodies, the antibody binding to its antigen, polyhistidine-tagged CTLA-4, was measured over a pH range. As a control, HL12, which is known to bind CTLA-4 in a pH-dependent manner, with reduced binding at low/acidic pH, was used.

| binding at pH 5.5 relative to neutral pH (pH 7.0) [1] [%] | Kd [2] [nM] | binding at pH 5.5 relative to neutral pH (pH 7.0) [3] [%] | Binder |
| --- | --- | --- | --- |
| < 50 |  |  | B1 |
|  | 0.147 |  | B2 |
|  | 1.23 |  | B3 |
|  | 4.46 | ≤ 50 | B4 |
|  | 2.32 | ≤ 50 | B5 |
|  | 0.542 | ≥ 75 | B6 |
|  | 0.387 | ≥ 75 | B7 |
